The record followed here is publication PMC8693861, “Structure, mechanism, and inhibition of Hedgehog acyltransferase” (Molecular Cell, 2021).

This assay deals with biotinylated human HHAT-Avi-1D4 (pHR-CMV-TetO2-HHAT-wildtype-Avi-1D4) (Homo sapiens, natural variant VAR_024743, strain, biotin on the biotinylation tag). Briefly: cell-based or functional assay.
Sequence of biotinylated human HHAT-Avi-1D4 (pHR-CMV-TetO2-HHAT-wildtype-Avi-1D4) (Homo sapiens, natural variant VAR_024743, strain, biotin on the biotinylation tag) (Q5VTY9 other isoform, or with tags, fused parts or gaps, change not shown): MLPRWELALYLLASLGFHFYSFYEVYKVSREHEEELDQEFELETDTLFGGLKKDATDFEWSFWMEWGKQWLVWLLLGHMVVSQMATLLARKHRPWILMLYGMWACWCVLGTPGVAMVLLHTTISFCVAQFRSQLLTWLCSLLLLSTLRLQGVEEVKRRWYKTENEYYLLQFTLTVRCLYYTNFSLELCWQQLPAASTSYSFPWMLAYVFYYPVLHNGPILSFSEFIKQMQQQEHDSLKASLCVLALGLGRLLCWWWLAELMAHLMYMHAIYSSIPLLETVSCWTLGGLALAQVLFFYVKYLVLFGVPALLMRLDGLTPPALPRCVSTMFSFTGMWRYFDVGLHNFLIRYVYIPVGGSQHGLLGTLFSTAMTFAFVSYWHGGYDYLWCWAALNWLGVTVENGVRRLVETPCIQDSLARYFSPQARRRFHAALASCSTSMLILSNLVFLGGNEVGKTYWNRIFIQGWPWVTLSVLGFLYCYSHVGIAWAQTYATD

B1: nanobody NB169 (VHH)
VHH: QVQLVESGGGLVQAGGSLRLSCAASGSIRSINGMGWYRQAPGKQRELVAALSSGGSTNYADSVKGRFTISRDNAKKTVNLQMNSLKPEDTAVYYCNARRGGRSWSEGPPYDYWGQGTQVTVSS
Take B1: the “IC50 of inhibition of HHAT-catalysed palmitoyl transfer to a SHH peptide (acyl-cLIP assay); blocks HHAT with SHH” value came to 1.3 nM.

B2: nanobody NB177 (VHH)
VHH: QVQLVESGGGLVQAGGSLRLSCTASGAIFSTYDVSWYRQAPEKPRELVAIITRGGNTHYADTVKGRFTISRDNAKNTVYLQMNSLKPEDTAVYYCHAGVQGAMLGPRNYWGQGTQVTVSS
With B2, the “IC50 of inhibition of HHAT-catalysed palmitoyl transfer to a SHH peptide (acyl-cLIP assay); blocks HHAT with SHH” value amounted to 0.9 nM.
